# Values quoted from earlier work in article PMC10606834, “Is the Neuropeptide PEN a Ligand of GPR83?” (International Journal of Molecular Sciences, 2023).
# Legend:
# [1] = system: GPR83
# Source text: G protein-coupled receptor 83 (GPR83), also termed glucocorticoid-induced receptor (GIR), GPR72, KIAA1540, or JP05, is a class A G protein-coupled receptor with predominant expression in the […] and proposed function in the regulation of food intake and in anxiety-like behavior [1, 2, 3]. […] A potential role of GPR83 in regulatory T cell development and function has not been confirmed. […] The present study was initiated to evaluate PEN as a ligand of GPR83. […] While one end of the peptide may be crucial for binding the receptor, an absolute requirement of both peptide termini to be free of another ...
# [2] = system: GPR83 (murine Att20 and STC-1 cells); conditions: pilot screen of peptide hormone library, ref [14]
# Source text: While the earlier study employed CHO cells from Cricetulus griseus and Neuro2A cells from Mus musculus overexpressing human GPR83 [10], this study used human HEK293 and U2OS c ...
molecule,measurement,setting,value
"FAM237A: 9 kDa protein, termed family with sequence similarity 237 member A (protein, UniProt A0A1B0GTK4 34-181, looked up) Protein FAM237A: HSQTDLLALSQADPQCWESSSVLLLEMWKPRVSNTVSGFWDFMIYLKSSENLKHGALFWDLAQLFWDIYVDCVLSRNHGLGRRQLVGEEEKISAAQPQHTRSKQGTYSQLLRTSFLKKKELIEDLISMHVRRSGSSVIGKVNLEIKRK",GPR83 ligand and agonist,"[1]; comparative evaluation, multiple assay systems, ref [16]",only FAM237A was confirmed as a GPR83 ligand and agonist
same,interaction with GPR83,"[1]; multiple luminescence-based interaction and activation assays, ref [16]",confirmed the interaction of FAM237A
same,activation of GPR83,"[1]; peptide hormone library screening study, ref [14]",activate GPR83
same,GPR83-mediated β-arrestin recruitment,[2],activator of GPR83-mediated β-arrestin recruitment
